Data: patent US8802160B2 (Amorphical Ltd., priority 2007, dated 2014)
Entries after “also recorded” stand apart in the source; their conditions may differ.

B1: trypsin (protein, UniProt P00760 24-246, looked up)
Serine protease 1: IVGGYTCGANTVPYQVSLNSGYHFCGGSLINSQWVVSAAHCYKSGIQVRLGEDNINVVEGNEQFISASKSIVHPSYNSNTLNNDIMLIKLKSAASLNSRVASISLPTSCASAGTQCLISGWGNTKSSGTSYPDVLKCLKAPILSDSSCKSAYPGQITSNMFCAGYLEGGKDSCQGDSGGPVVCSGKLQGIVSWGSGCAQKNKPGVYTKVCNYVSWIKQTIASN
notes: other (inert) protein used as control in the precipitation assay
B2: GAP65: approximately 65 kDa negatively charged glycoprotein from Cherax quadricarinatus gastrolith, SEQ ID NO:1; used as GAP65 enriched fraction (protein, listed as Cherax quadricarinatus)
chain: MIRRVTTPLLALLLAGWVVAQTTDMDPEQYCARRDDEYFRKDFGDPAEFASDYRANCGVYYRCVPAPAGKRSISASQCQSELFFDVQQQICERKSKVTNCEQIDKEHPPQPFWPLREGEESQCKSGEIMCGSGECLPQHRFCDENSDCADGSDENICTPDKDPNRADVCEPRTCLWSQGCFCSVDGTRIPGDLTVDQTPQMITITFTGAINERNFRIFQDVFKDTVKHKGNDCTPKGTFFISHGFSNYSAIQELNRVGHEIAVSSITNNDNPDYWSKLSALDYEAEMDGARLIIEKFANITANEVLGIRVPKQRVGGNRQFRMMVDWGFLYDSSISAPMGRLPLWPYTLMHRMPHKCLGNDQNCPSQNFTVWEMVINEMDRRDDPQFDERLTGCHFVDQCANIQSPEQFRAFLDNNLARHYRTNRAPLGLHFTSGYFETRRDFLREFVKWVRETALSGDYFFVTMQQVINWMEAPTELTAINNFQEWKGKCEVKGQPYCSLPNPCPKKVPRIFPNEEEMFLYTCMECPNTYPWLGDPHGNGFLDIPDF
modifications: glycosylated
notes: used as GAP65 enriched fraction

How the values were obtained:
[1] = In vitro calcium carbonate precipitation assay testing the stabilization of ACC; type: physicochemical; settings: for effect on calcium carbonate precipitation (polymorph obtained): CaCl2 + Na2CO3 solution, SEM, Raman
Description: Electron microscope images of the precipitates distinctly indicated different polymorph composition of calcium carbonate for the precipitation in the presence/absence of GAP65-enriched fractions (FIG. 7).
FIG. 7 presents precipitation results of calcium carbonate in the presence of GAP65 and in the presence of other protein (trypsin). SEM images in FIG. 7A indicate the distinct polymorph of calcium carbonate in each treatment.
(§1) 100 μl of 1M CaCl2 was added to 10 ml double distilled water (final concentration: 10 mM). 80 μl from the protein extraction solution (1.2 μg/μl) were added (final concentration ˜10 μg/ml). 100 μl of 1M Na2CO3 (final concentration: 10 mM) was added following an intensive shaking. The vial was centrifuged for 5 min at 4000 rpm, the precipitate was smeared over a glass slide and instantly dried with air flow. […] The observations were confirmed by Raman spectroscopy.
The peak at 560 is attributed to the glass substrate. […] Specific expression of GAP21, GAP22 and GAP65 in several target tissues was checked by means of RT-PCR, similarly as described in Example 2. GAP21 and GAP65 expressions were found in both cuticle related tissues. GAP22 expression was found only in the gastrolith epithelial disc. The cDNA sequences of the corresponding genes were obtained and their deduced proteins were found (FIGS. 13-15). […] GAP12, GAP21 and GAP22, on the other hand, show no significant similarity to any known domain.

[2] = Stability of ACC at room temperature by Raman spectroscopy; type: physicochemical
Description: The precipitated calcium carbonate was checked over long periods for the amorphous/crystalline state.
as §1

Molecule | effect on calcium carbonate precipitation (polymorph obtained) [1] | time ACC precipitated with GAP65 remained stable [2] | ACC share of the total CaCO3 precipitated ([1]; 10 mM CaCl2, 10 mM Na2CO3, ~10 μg/ml protein, estimated)
B1 | rapid crystallization | – | –
B2 | amorphous CaCO3; also recorded: deposition of an amorphous form (ACC) | at least 1 months | at least 50%
